Measurements reported in publication PMC4060006, “SM proteins Sly1 and Vps33 co-assemble with Sec17 and SNARE complexes to oppose SNARE disassembly by Sec18” (eLife, 2014).

T1: GST-Sed5 full cytoplasmic domain (aa1-319) (S. cerevisiae, UniProt Q01590 1-319)
T1 construct: Sed5, Golgi Qa-SNARE, S. cerevisiae, full cytoplasmic domain aa1-319 with N-peptide and Habc segments, no transmembrane domain; also called GST-Sed5FL; Sed5FL; not shown: GST, N-terminal, kept
T1 sequence (looked up): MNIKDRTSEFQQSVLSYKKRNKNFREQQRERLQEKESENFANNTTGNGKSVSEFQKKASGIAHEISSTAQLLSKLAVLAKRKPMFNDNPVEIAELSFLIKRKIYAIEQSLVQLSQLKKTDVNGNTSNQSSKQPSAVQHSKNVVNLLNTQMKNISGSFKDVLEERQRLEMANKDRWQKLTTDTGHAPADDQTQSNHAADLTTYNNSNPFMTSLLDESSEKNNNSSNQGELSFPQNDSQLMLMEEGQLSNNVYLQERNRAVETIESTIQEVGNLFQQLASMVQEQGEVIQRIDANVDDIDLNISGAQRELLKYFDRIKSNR

T2: GST-Sed5 SNARE domain (aa170-319) (S. cerevisiae, UniProt Q01590 170-319)
T2 construct: Sed5, Golgi Qa-SNARE, S. cerevisiae, aa170-319, lacks the N-peptide, the Habc domain and the transmembrane domain; also called Golgi Qa-SNARE lacking N-peptide and Habc domain; not shown: GST, N-terminal, kept
T2 sequence (looked up): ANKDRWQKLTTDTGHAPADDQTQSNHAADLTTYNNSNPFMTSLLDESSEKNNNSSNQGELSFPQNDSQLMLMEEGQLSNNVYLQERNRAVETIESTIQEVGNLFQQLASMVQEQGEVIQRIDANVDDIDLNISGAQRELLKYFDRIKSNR

T3: Vam3-GST (cytoplasmic domain of Vam3, aa1-264) (S. cerevisiae, UniProt Q12241 1-264)
T3 construct: Vam3, vacuole Qa-SNARE, S. cerevisiae, cytoplasmic domain aa1-264, no transmembrane domain; TEV site between SNARE and GST; also called Vam3 cytoplasmic domain; vacuole Qa-SNARE; not shown: GST, C-terminal, kept
T3 sequence (looked up): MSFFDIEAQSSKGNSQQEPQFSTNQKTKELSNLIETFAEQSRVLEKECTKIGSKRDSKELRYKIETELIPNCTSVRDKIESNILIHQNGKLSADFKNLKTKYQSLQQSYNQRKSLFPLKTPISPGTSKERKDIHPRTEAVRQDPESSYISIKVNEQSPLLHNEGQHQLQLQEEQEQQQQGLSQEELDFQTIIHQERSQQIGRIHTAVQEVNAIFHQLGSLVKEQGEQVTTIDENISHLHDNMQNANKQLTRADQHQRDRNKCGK


Legend:
Conditions in all cases: both partners purified
[1] = target: T1, GST-Sed5 full cytoplasmic domain …; assay: pull-down; SNARE complex assembly: 125 pmol GST-tagged Qa-SNARE on glutathione sepharose 4B; >=fivefold molar excess of Qb-, Qc- and R-SNAREs overnight at 4°C; SM Assay Buffer (20 mM HEPES, 150 mM NaCl, 2 mM 2-mercaptoethanol, 0.05% Anapoe-X-100, pH 7.4); washed
[2] = target: T2, GST-Sed5 SNARE domain (aa170-319); assay: pull-down; re-assembly with added SNAREs: as a9, but soluble Qb, Qc and R-SNAREs (~3 µM each) added along with the EDTA quench, 30 min at 30°C
[3] = target: T3, Vam3-GST (cytoplasmic domain of Vam3, …); assay: as above
[4] = target: T3, Vam3-GST (cytoplasmic domain of Vam3, …); assay: pull-down; SNARE complex assembly: 125 pmol GST-tagged Qa-SNARE on glutathione sepharose 4B; >=fivefold molar excess of Qb-, Qc- and R-SNAREs overnight at 4°C; SM Assay Buffer (20 mM HEPES, 150 mM NaCl, 2 mM 2-mercaptoethanol, 0.05% Anapoe-X-100, pH 7.4); washed

Row | binding result [1] | binding result [3] | Binder | other results
1 | binds | – | His6-Sec22 (soluble domain, aa1-188) (domain or fragment, S. cerevisiae, UniProt P22214 1-188, looked up, Sec22, Golgi R-SNARE, S. cerevisiae, soluble domain aa1-188; also called Golgi R-SNARE; source: E. coli (pRIL plasmid), purified (Ni-NTA); not shown: His6, N-terminal, kept) MIKSTLIYREDGLPLCTSVDNENDPSLFEQKQKVKIVVSRLTPQSATEATLESGSFEIHYLKKSMVYYFVICESGYPRNLAFSYLNDIAQEFEHSFANEYPKPTVRPYQFVNFDNFLQMTKKSYSDKKVQDNLDQLNQELVGVKQIMSKNIEDLLYRGDSLDKMSDMSSSLKETSKRYRKSAQKINFD | –
2 | binds | – | His6-Bos1 (soluble domain, aa1-222) (domain or fragment, S. cerevisiae, UniProt P25385 1-222, looked up, Bos1, Golgi Qb-SNARE, S. cerevisiae, soluble domain aa1-222; also called Golgi Qb-SNARE; source: E. coli Rosetta2 pLys, purified (Ni-NTA); not shown: His6, N-terminal, kept) MNALYNHAVKQKNQLQQELARFEKNSVTAPISLQGSISATLVSLEKTVKQYAEHLNRYKEDTNAEEIDPKFANRLATLTQDLHDFTAKFKDLKQSYNENNSRTQLFGSGASHVMDSDNPFSTSETIMNKRNVGGASANGKEGSSNGGGLPLYQGLQKEQSVFERGNAQLDYILEMGQQSFENIVEQNKILSKVQDRMSNGLRTLGVSEQTITSINKRVFKDK | –
3 | binds | – | His7-MBP-Bet1 (soluble domain, aa1-123) (domain or fragment, S. cerevisiae, UniProt P22804 1-123, looked up, Bet1, Golgi Qc-SNARE, S. cerevisiae, soluble domain aa1-123; also called Golgi Qc-SNARE; source: E. coli (pRIL plasmid), purified (Ni-NTA); not shown: His7, N-terminal, kept; MBP, N-terminal, kept) MSSRFAGGNAYQRDTGRTQLFGPADGSNSLDDNVSSALGSTDKLDYSQSTLASLESQSEEQMGAMGQRIKALKSLSLKMGDEIRGSNQTIDQLGDTFHNTSVKLKRTFGNMMEMARRSGISIK | binding result [2]: binds
4 | – | binds | His6-GFP-Vam7 SNARE domain (aa190-316) (domain or fragment, S. cerevisiae, UniProt P32912 190-316, looked up, Vam7, vacuole Qc-SNARE, S. cerevisiae, SNARE domain aa190-316; also called vacuole Qc-SNARE; source: E. coli (pRIL plasmid), purified (Ni-NTA); not shown: His6, N-terminal, kept; GFP (A207K), N-terminal, kept) PSTEVTRRAALLRSLLKECDDIGTANIAQDRGRLLGVATSDNSSTTEVQGRTNNDLQQGQMQMVRDQEQELVALHRIIQAQRGLALEMNEELQTQNELLTALEDDVDNTGRRLQIANKKARHFNNSA | –
5 | – | – | His7-MBP-Vti1 (soluble domain, aa1-194) (domain or fragment, S. cerevisiae, UniProt Q04338 1-194, looked up, Vti1, vacuole Qb-SNARE, S. cerevisiae, soluble domain aa1-194; also called vacuole Qb-SNARE; source: E. coli (pRIL plasmid), purified (Ni-NTA); not shown: His7, N-terminal, kept; MBP, N-terminal, kept) MSSLLISYESDFKTTLEQAKASLAEAPSQPLSQRNTTLKHVEQQQDELFDLLDQMDVEVNNSIGDASERATYKAKLREWKKTIQSDIKRPLQSLVDSGDRDRLFGDLNASNIDDDQRQQLLSNHAILQKSGDRLKDASRIANETEGIGSQIMMDLRSQRETLENARQTLFQADSYVDKSIKTLKTMTRRLVANK | binding result [4]: binds
6 | – | binds | His6-Nyv1 (soluble domain, aa1-231) (domain or fragment, S. cerevisiae, UniProt Q12255 1-231, looked up, Nyv1, vacuole R-SNARE, S. cerevisiae, soluble domain aa1-231; also called vacuole R-SNARE; source: E. coli (pRIL plasmid), purified (Ni-NTA); not shown: His6, N-terminal, kept) MKRFNVSYVEVIKNGETISSCFQPFQKNENYGTITSANEQITPVIFHNLIMDMVLPKVVPIKGNKVTKMSMNLIDGFDCFYSTDDHDPKTVYVCFTLVDMPKILPIRILSGLQEYESNATNELLSSHVGQILDSFHEELVEYRNQTLNSSGNGQSSNGNGQNTISDIGDATEDQIKDVIQIMNDNIDKFLERQERVSLLVDKTSQLNSSSNKFRRKAVNIKEIMWWQKVKN | –
